Measurements as given in PMC4526809.
Where “and” joins values, the source holds several entries; their conditions need not be identical. Equal values may be shown once.

Columns and labels:
[1] = target: His6-tagged B. cereus C-SpoIISA (pETDuetCIISA Bc; pETDuetCIISAB Bc) (Bacillus cereus ATCC 14579) (UniProt Q81DD1); assay: cross-linking; 80 μg Ni-purified His6-C-SpoIISA with glutaraldehyde (5 μl of 2.3% in 100 μl), 30 min, 37°C; 12% SDS-PAGE and Western blot
[2] = target: untagged B. cereus C-SpoIISA (Bacillus cereus ATCC 14579) (UniProt Q81DD1); assay: SEC; purified untagged C-SpoIISA on Superose 6 10/300 GL, 0.4 ml/min, absorbance at 280 nm

Substance | stoichiometry N [1] | stoichiometry N [2]
His6-tagged B. cereus C-SpoIISA (pETDuetCIISA Bc; pETDuetCIISAB Bc) (from UniProt Q81DD1 1-245) (domain or fragment) | 2 and 3 | –
untagged B. cereus C-SpoIISA (from UniProt Q81DD1 1-245) (domain or fragment) | – | 2 and 3
